Like-named read-outs stand apart in the source and are kept apart here. Ends that are not written are not given here. Me2 = dimethylation (dimethyl-lysine); Me3 = trimethyl on lysine side chain

Some targets named below: ASH1L PHD finger D2584A (human, UniProt Q9NR48 2579-2629, Substitution of D2584 with alanine); ASH1L PHD finger D2603A (human, UniProt Q9NR48 2579-2629, D2603A); ASH1L PHD finger Q2601K (human, UniProt Q9NR48 2579-2629, Q2601K); ASH1L PHD finger D2595A (human, UniProt Q9NR48 2579-2629, Substitution of D2595 with alanine); ASH1L PHD finger S2618A (human, UniProt Q9NR48 2579-2629, S2618A).

The target of experiment [1] is T1, ASH1L plant homeodomain (PHD) finger, wild type (aa 2579-2629) (human, UniProt Q9NR48 2579-2629).
T1 chain: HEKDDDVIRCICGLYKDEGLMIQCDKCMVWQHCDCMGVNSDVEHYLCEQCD
Briefly: MST.

The target in experiment [2] is T2, ASH1L PHD finger-BAH domain (human, UniProt Q9NR48 2579-2834).
T2 chain: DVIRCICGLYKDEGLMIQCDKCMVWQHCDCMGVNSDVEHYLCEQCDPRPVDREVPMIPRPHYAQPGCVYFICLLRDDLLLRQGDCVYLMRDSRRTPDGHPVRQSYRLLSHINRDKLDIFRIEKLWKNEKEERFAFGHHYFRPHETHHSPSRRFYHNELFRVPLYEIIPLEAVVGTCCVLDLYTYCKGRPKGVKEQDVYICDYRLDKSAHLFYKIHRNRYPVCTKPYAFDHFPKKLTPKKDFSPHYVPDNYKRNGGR

The target of a further experiment is T3, ASH1L PHD finger Y2693K (human, UniProt Q9NR48 2579-2629).
T3 chain: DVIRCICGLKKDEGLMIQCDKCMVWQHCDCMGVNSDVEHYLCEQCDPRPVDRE

Experiment [3] concerns the target T1, ASH1L plant homeodomain (PHD) finger, ….

B1: histone H3K4me3 peptide (aa 1-12 of H3) (peptide)
peptide: ARTK(Me3)QTARKSTG
As for B1, the Kd (as a rule, the free concentration of one partner at which half of the binding sites on the other are occupied at equilibrium, for simple one-to-one binding) in [1] turned out to be 1.1 µM; in experiment [2] it was 1 µM; with ASH1L PHD finger D2584A, 4.6 µM; with ASH1L PHD finger D2603A it was 2 µM; with ASH1L PHD finger Y2693K it was 1.8 µM; in the experiment with ASH1L PHD finger Q2601K it was 1 µM. The Kd in experiment [3] came to 1.6 µM; in the experiment with ASH1L PHD finger D2595A, 6.7 µM; in the experiment with ASH1L PHD finger S2618A it was 5.9 µM.

B2: histone H3K4me2 peptide (aa 1-12 of H3) (peptide)
peptide: ARTK(Me2)QTARKSTG
Regarding B2, the Kd in [3] came to 1 µM.

The values above are taken from publication PMC11883000 (2025).
